# T1: Cim5 (yeast, UniProt P33299 1-467)
# T1 construct: Endogenous protein in yeast extracts, detected by immunoblot as part of the proteasome complex
# T1 sequence (looked up): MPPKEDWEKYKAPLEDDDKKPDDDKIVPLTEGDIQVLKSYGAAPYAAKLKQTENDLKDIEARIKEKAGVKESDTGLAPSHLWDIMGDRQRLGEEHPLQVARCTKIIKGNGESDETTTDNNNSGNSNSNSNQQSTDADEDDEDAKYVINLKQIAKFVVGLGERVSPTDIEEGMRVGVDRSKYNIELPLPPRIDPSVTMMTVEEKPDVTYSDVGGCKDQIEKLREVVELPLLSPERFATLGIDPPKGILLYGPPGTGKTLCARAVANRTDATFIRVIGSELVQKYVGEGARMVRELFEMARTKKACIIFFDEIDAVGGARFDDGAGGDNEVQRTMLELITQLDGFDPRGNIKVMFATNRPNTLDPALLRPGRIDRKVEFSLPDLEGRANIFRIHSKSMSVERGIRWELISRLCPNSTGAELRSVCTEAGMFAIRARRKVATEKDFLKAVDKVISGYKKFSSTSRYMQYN
# T2: Cim3 (yeast, UniProt Q01939 2-405)
# T2 construct: Endogenous protein in yeast extracts, detected by immunoblot as part of the proteasome complex; also called Sug1
# T2 sequence (looked up): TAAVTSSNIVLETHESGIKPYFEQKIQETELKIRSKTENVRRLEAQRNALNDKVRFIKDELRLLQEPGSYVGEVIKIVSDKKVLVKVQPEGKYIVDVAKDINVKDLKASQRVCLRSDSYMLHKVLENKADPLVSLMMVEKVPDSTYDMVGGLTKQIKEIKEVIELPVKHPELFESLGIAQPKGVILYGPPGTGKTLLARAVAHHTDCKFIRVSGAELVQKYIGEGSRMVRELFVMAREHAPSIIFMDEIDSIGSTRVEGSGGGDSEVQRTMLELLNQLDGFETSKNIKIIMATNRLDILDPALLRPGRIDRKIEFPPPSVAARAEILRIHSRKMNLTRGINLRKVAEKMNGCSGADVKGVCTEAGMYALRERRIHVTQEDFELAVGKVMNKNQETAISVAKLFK
# Legend:
# Pre1-FLAG (yeast) = Pre1-FLAG (yeast) (UniProt P22141); assay: co-immunoprecipitation on FLAG-agarose; amount left on the beads after 18 hours at 4° C.
# Cim5 = biological target: T1, Cim5; assay: GST pull-down from yeast extracts, Cim3 and Cim5 immunoblot (FIG. 13A, lane 5)
# Protocol: (§1) GST linked proteins were expressed in yeast and purified on glutathione-SEPHAROSE. Proteins retained on the beads were resolved in SDS-polyacrylamide gels, transferred to nitrocellulose, and incubated with antisera specific to proteasome subunits Cim3 and Cim5. The blot was developed by enhanced chemiluminescence ([…]). […] Yeast strains expressing the GST linked proteins as well as Pre1-FLAG, FIG. 13B. The blot was developed with anti-FLAG antiserum (KODAK). The position of molecular weight markers are indicated.
# (§2) Extracts were incubated with glutathione-SEPHAROSE, and bound proteins separated in a SDS-polyacrylamide gel, transferred to nitrocellulose and analyzed by immunological methods. […] The interacting proteins were analyzed via western blot analysis with Cim5 antibodies which cross-react with Mss1, a human counterpart of yeast Cim5 (Ghislain, et al. (1993) Nature 366:358-361).
# Cim3 = biological target: T2, Cim3; assay: as above
# Protocol: as §1, §2
# Chain of Pre1-FLAG (yeast) (P22141 whole entry): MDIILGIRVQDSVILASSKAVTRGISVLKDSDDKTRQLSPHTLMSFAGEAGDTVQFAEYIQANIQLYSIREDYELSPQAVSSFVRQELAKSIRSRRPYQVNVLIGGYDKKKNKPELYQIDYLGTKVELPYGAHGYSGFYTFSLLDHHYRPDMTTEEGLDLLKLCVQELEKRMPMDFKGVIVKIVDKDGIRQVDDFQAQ
molecule,measurement,setting,value
native Rad23 (from UniProt P32628 1-398),percent of cellular Rad23 precipitated with Pre1-FLAG,Pre1-FLAG (yeast),5%
"GST-UbL^HRA (other, The UbL is linked to the C-terminus of GST; also called ubiquitin-like domain of HHR23A linked to GST; not shown: glutathione S-transferase (GST)) MAVTITLKTLQQQTFKIRMEPDETVKVLKEKIEAEKGRDAFPVAGQKLIYAGKILSDDVPIRDYRIDEKNFVVVMVTKTKA",binding result,Cim5,no binding
same,binding result,Cim3,no binding

# Reference: patent US20060281118A1 (UNIVERSITY OF MEDICINE AND DENTISTRY OF NEW JERSEY, published 2006)
